Patent US20240189352A1 (published 2024)

Experiments:
Assay in all cases: cytokine release
[1] = biological target: T1, RAC1 P29S peptide on HLA-A*02:01 (human)
T1 peptide: FSGEYIPTV

[2] = biological target: T2, RAC2 P29L, position 2 replaced by alanine peptide on HLA-A*02:01 (human)
T2 peptide: FAGEYIPTV

[3] = biological target: T3, RAC2 P29L, position 1 replaced by alanine peptide on HLA-A*02:01 (human)
T3 peptide: ALGEYIPTV

[4] = biological target: T4, RAC2 P29L, position 6 replaced by alanine peptide on HLA-A*02:01 (human)
T4 peptide: FLGEYAPTV

[5] = biological target: T5, RAC2 P29L, position 3 replaced by alanine peptide on HLA-A*02:01 (human)
T5 peptide: FLAEYIPTV

[6] = biological target: T6, RAC2 P29L peptide on HLA-A*02:01 (human)
T6 peptide: FLGEYIPTV

[7] = biological target: T7, RAC2 P29L, position 4 replaced by alanine peptide on HLA-A*02:01 (human)
T7 peptide: FLGAYIPTV

Measured: binding result

B1: RAC2-T002 (TCR, V domains shown)
Valpha: AQSVTQLGSHVSVSEGALVLLRCNYSSSVPPYLFWYVQYPNQGLQLLLKYTTGATLVKGINGFEAEFKKSETSFHLTKPSAHMSDAAEYFCAVGANNLFFGTGTRLTVIP
Vbeta: EPEVTQTPSHQVTQMGQEVILRCVPISNHLYFYWYRQILGQKVEFLVSFYNNEISEKSEIFDDQFSVERPDGSNFTLKIRSTKLEDSAMYFCASSEWRGSSYNEQFFGPGTRLTVL
recognises: [1] | [2] | [3] | [4] | [5] | [6]

B2: RAC2-T001 (TCR, V domains shown)
Valpha: GENVEQHPSTLSVQEGDSAVIKCTYSDSASNYFPWYKQELGKGPQLIIDIRSNVGEKKDQRIAVTLNKTAKHFSLHITETQPEDSAVYFCAASMGNAGNMLTFGGGTRLMVKP
Vbeta: EPEVTQTPSHQVTQMGQEVILRCVPISNHLYFYWYRQILGQKVEFLVSFYNNEISEKSEIFDDQFSVERPDGSNFTLKIRSTKLEDSAMYFCASSETSGASYEQYFGPGTRLTVT
recognises: [1] | [2] | [3] | [5] | [7] | [6]
